Source: patent US20010016351

Test system: GFP-CBP fusion protein (green fluorescent protein with C-terminal thrombin-cleavable calmodulin binding peptide tag, expressed from GFP Clone No. 2995-87.6 in BL21(DE3) cells) [GFP: P42212]

Substance: thrombin
- cleavage of the fusion protein by thrombin at 6 h: Fifty percent cleavage was observed at 6 h
- cleavage of the fusion protein by thrombin at 24 h: 95 percent cleavage was achieved at 24 h
